Reference: patent US20220347267A1, “METHODS TO IMPROVE PATIENT RESPONSE TO IMMUNE CHECKPOINT INHIBITORS AND FUNCTIONAL TESTS TO PREDICT RESPONSE” (Biomarker Strategies, LLC, priority 2019, published 2022)

Key:
Assay in all cases: PD-L1 western blot after modulators (EM and MTAs)
Assay type in all cases: cell-based, human
A375 cells = conditions: Melanoma A375, 30 minutes, 3 hours, 24 hours
From the text: (§1) Cell lines were acquired from ATCC, Sigma, or DSMZ. Human non-small cell lung carcinoma (NSCLC) cell lines H292 (ATCC no. CRL-1848.), H1299 (ATCC no. CRL-5803), H520 (ATCC no. CRL-5811), CALU6 (ATCC no. HTB-56), H1975 (ATCC no. CRL-5908), H460 (ATCC no. HTB-177), H2126 (ATCC no. CCL-256), H1650 (ATCC no. CRL-5883), and H2087 (ATCC no. CRL-5922) were used for this experiment along with head and neck squamous cell carcinoma (HNSCC) cell lines BHY (DSMZ ACC 404), CAL27 (ATCC no. CRL-2095), KYSE410 (Sigma), and A253 (ATCC no. HTB-41), melanoma cell lines A375 (ATCC no. CRL-1619), COL0853 (Sigma), and MM127 (Sigma) pancreatic cancer cell lines BXPC3 (ATCC no. CRL-1687), colorectal cancer cell lines […], HCT116 (ATCC no. CCL-247EMT), and breast cancer cell lines BT549 (ATCC no. HTB-122), BT20 (ATCC no. HTB-19), and T47D (ATCC no. HTB-133). Cells were maintained in manufacturer-recommended conditions at 37° C. inside humidified 5% CO2 incubators. Sub-cultivation and harvesting for all cell lines were performed using Accutase (GIBCO Life Technologies; cat. no. A1110501) at 37° C. for 10 minutes. Cell viability was measured using trypan blue exclusion staining in conjunction with the Countess II Automated Cell Counter (Thermo Fischer Scientific; cat. no. AMQAX1000). Measurements were made in duplicate and the average number of viable cells was recorded prior to experiments.
(§2) Enhancer Molecule and Therapies: IFNγ, (10 ng/ml; Sigma Aldrich, cat.no 11040596001), TNFα (10 ng/ml; BD Biosciences cat. no. 554618), Osimertinib (100 ng/ml; Selleckchem cat.no. S7297), Everolimus (100 ng/ml; Selleckchem cat.no S1120), GSK458 (10 ng/ml; Selleckchem cat. no. S2658), TNFb (50 ng/ml; Sigma Aldrich cat. no.), GSK795 (1,000 ng/ml; Selleckchem cat. no. S7492), IL-12 (50 ng/ml; Sigma Aldrich SRP3073), GM-CSF (50 ng/ml; Sigma Aldrich cat. no. G5035), IL-1a (1 ng/ml; Sigma Aldrich cat. no. 12778-), IL-6 (50 ng/ml; Sigma Aldrich), IL-17 (100 ng/ml; Sigma Aldrich cat. no. SRP3080), TGFb (1 ng/ml; Sigma Aldrich cat. no. T7039), and IL-10 (50 ng/ml; Sigma Aldrich cat. no. SRP3071) were administered to cell lines for various times including 30 minutes, 3 hour, and 24 hour time intervals prior to cell lysis and protein extraction.
(§3) To determine the effects of the aforementioned molecules on the modulation of PD-L1, we selected various NSCLC, HNSCC, breast cancer, melanoma, colorectal cancer, and pancreatic cancer cell lines as examples. Other diseases or cell lines could be used readily as could more complex samples such as cells isolated from xenografts and clinical samples. Cells were plated, for three different time points (30 minutes, 3 hours, and 24 hours), inside 6-well petri dishes with 2 mL of appropriate medium. Plates were incubated for 24 hours in 5% CO2 incubators at 37° C. After 24 hours, each 6-well plate was washed with PBS (Gibco Life Technologies, cat. no. 10010023) followed by fresh media being added along with each cell line's vehicle control or appropriate modulator for each specific time point, and were placed in CO2 incubators until their modulation time point was reached. Other conditions can be readily used, such as processing on automated systems such as SnapPath. At the end of each time point, while keeping plates on ice, cell lysis was conducted by aspirating culture medium from each plate, washing of each plate three times with 5 ml of cold PBS (Gibco Life Technologies, cat. no. 10010023) and culminated with the addition of cold 1× lysis buffer containing (Cell Signaling, cat. no. 9803 S) protease inhibitor cocktail (Cell Signaling, cat. no. 5871S), phosphatase inhibitor cocktail (Cell Signaling, cat. no. 5870S), and PMSF (Fisher Scientific, cat. no. ICN19538101). Plates were then placed on ice for ten minutes, swirling each plate intermittently. Aliquots of protein lysates were prepared and then stored at −80° C. until protein quantification and Western blot analysis was to be conducted. […]

BxPC3 cells = conditions: Pancreatic BxPC3, 30 minutes, 3 hours, 24 hours
From the text: as §1, §2, §3

H2087 cells = conditions: NSCLC H2087, 30 minutes, 3 hours, 24 hours
From the text: as §1, §2, §3

BHY cells = conditions: Head and neck BHY, 30 minutes, 3 hours, 24 hours
From the text: as §1, §2, §3

H1299 cells = conditions: NSCLC H1299, 30 minutes, 3 hours, 24 hours
From the text: as §1, §2, §3

CAL27 cells = conditions: Head and neck CAL27, 30 minutes, 3 hours, 24 hours
From the text: as §1, §2, §3

H1975 cells = conditions: NSCLC H1975, 30 minutes, 3 hours, 24 hours
From the text: as §1, §2, §3

H520 cells = conditions: NSCLC H520, 30 minutes, 3 hours, 24 hours
From the text: as §1, §2, §3

Calu6 cells = conditions: NSCLC Calu6, 30 minutes, 3 hours, 24 hours
From the text: as §1, §2, §3

BT20 cells = conditions: Breast BT20, 30 minutes, 3 hours, 24 hours
From the text: as §1, §2, §3

A253 cells = conditions: Head and neck A253, 30 minutes, 3 hours, 24 hours
From the text: as §1, §2, §3

KYSE410 cells = conditions: Head and neck KYSE410, 30 minutes, 3 hours, 24 hours
From the text: as §1, §2, §3

Measured: PD-L1 Response

B1: IFNγ: human IFNγ, modulator (10 ng/ml; Sigma Aldrich) (protein, UniProt P01579 24-161, looked up)
Interferon gamma: QDPYVKEAENLKKYFNAGHSDVADNGTLFLGILKNWKEESDRKIMQSQIVSFYFKLFKNFKDDQSIQKSVETIKEDMNVKFFNSNKKKRDDFEKLTNYSVTDLNVQRKAIHELIQVMAELSPAAKTGKRKRSQMLFRG
Up: A375 cells | BxPC3 cells | H2087 cells | BHY cells | H1299 cells | CAL27 cells | H1975 cells | H520 cells | Calu6 cells | BT20 cells | A253 cells | KYSE410 cells
